Assay results from US20210180049A1 (CHUGAI SEIYAKU KABUSHIKI KAISHA, priority 2013, published 2021).

Assays:
[1] = format: binding; details: Biacore T200, 15° C.
Procedure: Kynurenine-dependent antibody 6RNMSC1-2_F02 obtained from the library was assessed for its binding to kynurenine and derivatives thereof using Biacore T200 (GE Healthcare). The following […] molecules were assessed as derivatives: the kynurenine isomer D-kynurenine and the derivatives 3-hydroxy-DL-kynurenine, 4-(4-methylphenyl)-4-oxobutyric acid, R00447436-000-001, RO0635389-000-001, R00438566-001-001, and RO0635390-000-001. The chemical structure of each compound is shown below.
(§1) An appropriate amount of protein A (Invitrogen) was immobilized onto Sensor chip CM4 (GE Healthcare) by the amine coupling method. The antibody of interest was captured thereon, and the antigen kynurenine and derivatives thereof were allowed to interact. The running buffer used was 50 mmol/L Tris-HCl, 150 mmol/L NaCl, 0.02% (w/v) Tween 20, 5% DMSO, pH 7.6. All measurements were carried out at 15° C. The antigens were diluted with the running buffer.
(§2) Then, the running buffer was run at a flow rate of 30 μL/min for 60 seconds to observe the dissociation of antigens from the antibody. Kinetic parameters, the association rate constant ka (1/Ms) and the dissociation rate constant kd (l/s), were calculated based on the sensorgrams obtained by the measurements. The dissociation constant KD (M) was calculated from these constants. Each parameter was calculated using Biacore T200 Evaluation Software (GE Healthcare).

[2] = SPR (Biacore T200) binding of 6RNMSC1-2_F02 and variants to kynurenine
Procedure: as §1, §2
(§3) Meanwhile, the type of sensor chip immobilized with Protein A was changed to Sensor chip Series S CM3 (GE Healthcare) to measure some of the variants. When kynurenine dissociation was too fast to determine the dissociation rate constant, a dissociation constant KD (M) was calculated by analysis of equilibrium values based on the degree of binding response during the interaction with each antigen (association phase). In this case also, Biacore T200 Evaluation Software (GE Healthcare) was used to calculate the parameters.
as §3
(§4) When kynurenine dissociation was too fast to determine the dissociation rate constant, the dissociation constant KD (M) was calculated by analysis of equilibrium values based on the degree of binding response when it is interacted with each antigen (association phase). Also in this case, the Biacore T200 Evaluation Software (GE Healthcare) was used to calculate parameters. […] Each variant and its parental antibody F02h011/F021003 were compared in terms of the KD value for kynurenine.
as §4, with “analyzing” for “analysis of”, “sequence” for “antibody”

B1: 6RNMSC1-2_F02: antibody binding hIL-6R in the presence of kynurenine; heavy chain SEQ ID NO: 32, light chain SEQ ID NO: 33 (antibody, listed as Homo sapiens, V domains shown)
VH: QVQLVQSGAEVKKPGSSVKVSCKASGGTFSSYAISWVRQAPGQGLEWMGGIIPIFGTANYAQKFQGRVTITADESTSTAYMELSSLRSEDTAVYYCARDAPVVARPRGAFDIWGQGTMVTVSS
VL: DIVMTQTPLSSPVTLGQPASISCRSSQSLVHSDGNTYLSWLQQRPGQPPRLLIHEISNRFSGVPDRFSGSGAGTNFTLKISRVEAEDVGVYYCMQATQFPRTFGQGTKVEIK
binding to 3-hydroxy-DL-kynurenine [1]: bind | binding to RO0635389-000-001 [1]: bind | binding to RO0635390-000-001 [1]: bind | kynurenine binding (in words) ([2]; Biacore): confirmed once again to bind to kynurenine | Kd ([2]; Biacore T200, 15° C., 5% DMSO): 239 µM | ka for kynurenine ([2]; Biacore T200, 15° C., 5% DMSO): 709 M⁻¹ s⁻¹ | kd for kynurenine ([2]; Biacore T200, 15° C., 5% DMSO): 0.17 L/s
